Experimental data: paper PMC4324353 (2014)

B1: Spire Sc3d WH2 c-Linker 3-WH2 d (second actin at Sc) (protein)
chain: KKDAHAMILEFIRSRPPLKKASDRQLGPPRMCEPSPREQLMESIRKGKELKQITPPEA
B2: Spire Sc3d WH2 c-Linker 3-WH2 d (second actin at Sd) (protein)
chain: B1 chain

Target: actin (Oryctolagus cuniculus, UniProt P68135)

Binder	Kd [nM]
B1	10
B2	30
